Literature values as cited in article PMC3076547.

Molecular target: Nef (Human immunodeficiency virus 1) (UniProt P04324)

Hck SH3 (from UniProt P08631)
Kd: 250 nM
